Source: paper PMC3161508 (Advances in experimental medicine and biology, 2010)

Biological target: the molecule itself
Experiment: non-reducing SDS-PAGE and Western blotting

B1: cone CNG channel β subunit CNGB3 (natural protein, mouse (endogenous in retina), UniProt Q9JJZ9 1-694, looked up)
chain: MLKSLTVKFNKVNPMEGRMEKKLCPNLSSLSQPTIAQGDNQSEKEPLRSRTPITFEKSHSKEDNSTGENSLRDFTPNPDPECRAELTRTMAEMEKTRTGKERPVSFKTKVLETSIINEYTDAHLHNLVERMRERTALYKKTLTEEENFPEVEASSQTAMSTNISPKQENNSKLKEHQDTFSFKPQRVPVKEHLRRMILPRSIDSYTDRVYLLWLLLVTIAYNWNCWLLPVRLVFPCQTPDNKNYWIITDIVCDIIYLCDILLIQPRLQFVRGGEIIVDSNELKRNYRSSTKFRMDVASLLPFEVLYIFFGVNPIFRANRILKYTSFFEFNHHLESIMDKAYVYRVIRTTGYLLFLLHINACVYYWASDYEGIGSTKWVYNGEGNKYLRCFYWAVRTLITIGGLPEPQTSFEIVFQFLNFFSGVFVFSSLIGQMRDVIGAATANQNYFQACMDHIIAYMNKYSIPQSVQYRVRTWLEYTWNSQRILDESNLLENLPTAMQLSIALDINFSIIDKVELFKGCDTQMIYDLLLRLKSTIYLPGDFVCKKGEIGKEMYIIKHGEVQVLGGPDGAQVLVTLKAGSVFGEISLLAKGGGNRRTADVVAHGFANLLTLDKKTLQEILLHYPTSKKLLMKKAKILLSQKGKTTQAIPARPGPAFLFPPKEETPRMLKVLLGNTGKVDLGRLLKGKRKTTTQK
With B1 the “stoichiometry N” value was 2.
